In article doi:10.1101/580076 one finds stoichiometry N data, which are given here for one substance.

The test has as its target HAdV-D26 fiber-knob protein (human adenovirus D serotype 26 (HAdV-D26)). Put plainly: crystal structure.

Substance “HAdV-D26 fiber-knob protein (domain or fragment)” had a stoichiometry N of 3.

The term stoichiometry N denotes the number of molecules, sites or subunits per partner or assembly.
